Substitutions are numbered along the chain they refer to.
T1: mouse IL-13 (mouse, UniProt P20109 26-131, limits assumed)
T1 construct: also called mIL-13; murine IL-13
T1 sequence (looked up): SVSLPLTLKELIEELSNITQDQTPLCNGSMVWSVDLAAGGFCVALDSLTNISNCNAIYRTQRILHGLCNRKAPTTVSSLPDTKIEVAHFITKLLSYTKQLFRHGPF

B1: 1B6 (antibody, V domains shown)
VH: QVQLKESGPGLVAPSQSLSITCTVSGFSLTGYGVNWVRQPPGKGLEWLGMIWGDERIDYNSALKSRLSITKDNSKSQVFLKMNSLQTDDTGRYFCARDGYFPYAMDYWGQGTSVTVSS
VL: NIVLTQSPASLAVSLGQRATISCRASETVDSYGKSYLHWYQQKPGQPPKLLIYLASNLESGVPARFSGSGSRTDFTLIIDPVEADDAATYYCQQNNEGPRTFGGGTKLEIKR
B2: 6C8 (antibody, V domains shown)
VH: B1 VH with G26E, Y32S, G33S, E55G, T70S, G91A, F94Y, F101Y, D106N
VL: B1 VL with T28S, K34N, Y36F, L37M, T73A, I78T, G98N
B3: 5D3 (antibody, V domains shown)
VH: QVQLKESGPGLVAPSQSLSITCTVSGFSLTGYNINWVRQPPGKGLEWLGLIWGDGNTAFNSALKSRLSISKDNSKSQVFLKLNSLQTDDTARYYCARDGYYPYAIKYWGQGTSVTVSS
VL: B1 VL with K34N, Y36F, L37M, I78T, G98D
B4: 3E5 (antibody, V domains shown)
VH: QVQLKESGPGLVAPSQSLSITCTVSGFSLTGSSINWVRQPPGKGLEWLGMIWGDGRIDYNSVLKSRLSISKDSSKSQVFLKMNSLQADDTARYYCARDGYYPYAMVYWGQGTSVTVSS
VL: B1 VL with S22F, T28S, K34N, Y36F, L37M, P44S, I78T, Y90F, G98N
B5: 29G5 (antibody, V domains shown)
VH: QVTLKESGPGILQPSQTLSLTCSFSGFSLSTSDMGVDWIRQPSGKDLEWLAHIWWDDVKRYNPALKSRLTISKDTSSSQVFLMLASVDTADTATYYCARIVSSGYIYYALDYWGQGTSVTVSS
VL: DIQMTQTASSLSASLGDRVTISCRASQDIRNYLNWYQRKPDGTVKLLIYYTSRLHSGVPSRFSGSGSGTDYSLTISNLEQEDIATYFCQQGNTLPLTFGGGTKLEIKR
B6: 33C3 (antibody, V domains shown)
VH: B5 VH with M34L, D37G, D46G, L84I, V101G, A109E, L110M
VL: B5 VL with A8T, S22T, R38Q, E79D, K103R
B7: 5F1 (antibody, V domains shown)
VH: QVQLQQSGAELARPGTSVKLSCKASGYTFTTYGISWVKQRTGQGLEWIGEIYPGSYNTYYNEKFRGKATLTADKSSSTAYMQLSSLTSEDSAVYFCSRWRTSYFSDYGYFDYWGQGTTLTVSS
VL: DVVMTQTPLSLPVSLGDQASISCRSSQSLVHSHGNTYLHWYLQKPGQSPKLLIYTVSNRFSGVPDRFSGSGSGTDFTLKISRVEAEDLGVYFCSQSTHVPYTFGGGTKLEIKR
B8: 5G1 (antibody, V domains shown)
VH: B7 VH with I34V, S55N
VL: B7 VL
B9: 25C8 (antibody, V domains shown)
VH: QVQLQQPGAELVRPGASVQLSCKASGYTFTSSWIHWVNQRPGQGLEWIGMIHPSDSETRLNQKFKDKATLTVDKSSSTAYMQLSSPTSEDSAVYYCASTATDFDYWGQGTTLTVSS
VL: DVVLTQTPLSLPVNIGDQASISCKSTKSLLNSDGFTYLDWYLQKPGQSPQLLIYLVSNRFSGAPDRFSGSGSGTDFTLKISRVEAEDLGVYYCFQHNYLPLTFGAGTNLELKR
B10: 8B6 (antibody, V domains shown)
VH: B3 VH with Y32H, L50M, A58D, Y107F
VL: B1 VL with N1H, K34S, Y36F, N57K, I78T, T106S
B11: 4A8 (antibody, V domains shown)
VH: EVQLQQSGAEFVRPGALVKLSCKASGFNIKDYYMYWVKQRPEQGLEWIGRIDPENGNTIYDPKFQGKASITGDTSSNTAYLQLSSLTSEDTAVYYCARYAYYGPFDYWGQGTTLTVSS
VL: QAVVTQESALTTSPGETVTLTCRSSIGTVTTNNYANWVQEKPDHLFTGLIGSTNNRAPGVPARFSGSLIGDKAALTITGAQTEDEAIYFCALWYSNHWVFGGGTKLTVLG

target: T2, human IL-13 wild type (human, UniProt P35225 35-146); test: cell-based or functional assay
T2 sequence (P35225 other isoform, or with tags, fused parts or gaps limits assumed): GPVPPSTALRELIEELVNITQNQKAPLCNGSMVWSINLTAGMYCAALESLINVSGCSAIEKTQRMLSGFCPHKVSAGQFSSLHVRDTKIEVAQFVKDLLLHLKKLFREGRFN

| Average IC50, IL-13-induced TARC production by A-549 cells [nM] | Binder |
| --- | --- |
| 0.84 | B1 |
| 0.72 | B2 |
| 0.705 | B3 |
| 0.13 | B4 |
| 0.29 | B5 |
| 0.15 | B6 |
| 0.097 | B7 |
| 0.076 | B8 |
| 0.23 | B9 |

target: T3, human IL-13 variant (R130Q) (human, UniProt P35225 35-146); test: cell-based or functional assay
T3 sequence (P35225 35-146 limits assumed, stated change not applied): as the sequence (P35225 other isoform, or with tags, fused parts or gaps limits assumed) above, with R110Q counted along it

| Average IC50, IL-13-induced TARC production by A-549 cells [nM] | Binder |
| --- | --- |
| 0.24 | B1 |
| 0.34 | B2 |
| 0.29 | B3 |
| 0.3 | B4 |
| 0.48 | B10 |
| 0.27 | B11 |
| 0.2 | B5 |
| 0.1 | B6 |
| 0.09 | B7 |
| 0.048 | B8 |
| 0.26 | B9 |

target: cynomolgus IL-13 (cynomolgus, UniProt Q0PW92 21-132); test: cell-based or functional assay
Sequence (Q0PW92 entry or part of it): as the sequence (P35225 other isoform, or with tags, fused parts or gaps limits assumed) above, with G1S, R10K, M42V, S67N, H83R, L100V, R110Q counted along it

| Average IC50, IL-13-induced TARC production by A-549 cells [nM] | Binder |
| --- | --- |
| 0.521 | B1 |
| 0.161 | B2 |
| 0.291 | B3 |
| 0.161 | B4 |
| 0.395 | B10 |
| 4.39 | B5 |
| 0.847 | B6 |
| 1.88 | B7 |
| 0.612 | B8 |
| 0.188 | B9 |

target: T2, human IL-13 wild type; test: SPR (Biacore), mAb captured, IL-13 as analyte
Experimental: (§1) The BIACORE assay (Biacore, Inc, Piscataway, N.J.) determines the affinity of antibodies with kinetic measurements of on-, off-rate constants. […] All chemicals were obtained from Biacore® AB (Uppsala, Sweden) or otherwise from a different source as described in the text. Approximately 5000 RU of goat anti-mouse IgG, (Fcγ), fragment specific polyclonal antibody (Pierce Biotechnology Inc, Rockford, Ill.) diluted in 10 mM sodium acetate (pH 4.5) was directly immobilized across a CM5 research grade biosensor chip using a standard amine coupling kit according to manufacturer's instructions and procedures at 25 μg/ml. Unreacted moieties on the biosensor surface were blocked with ethanolamine. Modified carboxymethyl dextran surface in flowcell 2 and 4 was used as a reaction surface. Unmodified carboxymethyl dextran without goat anti-mouse IgG in flow cell 1 and 3 was used as the reference surface. For kinetic analysis, rate equations derived from the 1:1 Langmuir binding model were fitted simultaneously to association and dissociation phases of all eight injections (using global fit analysis) with the use of Biaevaluation 4.0.1 software. Purified antibodies were diluted in HEPES-buffered saline for capture across goat anti-mouse IgG specific reaction surfaces. Mouse antibodies to be captured as a ligand (25 μg/ml) were injected over reaction matrices at a flow rate of 5 μl/min. The association and dissociation rate constants, kₒₙ (unit M⁻¹s⁻¹) and koff (unit s⁻¹) were determined under a continuous flow rate of 25 μl/min Rate constants were derived by making kinetic binding measurements at ten different antigen concentrations ranging from 10-200 nM. […] Binding is recorded as a function of time and kinetic rate constants are calculated.

| Kd [nM] | koff [s⁻¹] | kon [M⁻¹ s⁻¹] | Binder |
| --- | --- | --- | --- |
| 0.545 | 0.000518 | 951000 | B1 |
| 0.484 | 0.000702 | 1.45e+06 | B2 |
| 0.296 | 0.000483 | 1.63e+06 | B3 |
| 0.457 | 0.000658 | 1.44e+06 | B4 |
| 0.523 | 0.000607 | 1.16e+06 | B10 |
| 0.089 | – | – | B11 |
| 0.204 | 0.000175 | 859000 | B5 |
| 0.0639 | 0.000149 | 2.33e+06 | B6 |
| 0.0289 | 2.24e-05 | 774000 | B7 |
| 0.00877 | 5.49e-06 | 626000 | B8 |
| 0.0754 | 2.6e-05 | 345000 | B9 |

target: T3, human IL-13 variant (R130Q); test: SPR (Biacore), mAb captured, IL-13 as analyte
Experimental: as §1

| Kd [nM] | koff [s⁻¹] | kon [M⁻¹ s⁻¹] | Binder |
| --- | --- | --- | --- |
| 0.21 | 0.000222 | 1.06e+06 | B1 |
| 0.403 | 0.000394 | 978000 | B2 |
| 0.387 | 0.000584 | 1.51e+06 | B3 |
| 0.253 | 0.000468 | 1.85e+06 | B4 |
| 0.976 | 0.00096 | 983000 | B10 |
| 0.157 | – | – | B11 |
| 0.329 | 0.000104 | 316000 | B5 |
| 0.124 | 9.59e-05 | 770000 | B6 |
| 0.0314 | 1.57e-05 | 502000 | B7 |
| 0.13 | 2.05e-05 | 157000 | B8 |
| 0.0631 | 8.45e-06 | 134000 | B9 |

target: T1, mouse IL-13; test: indirect ELISA, captured mAb, biotinylated mouse IL-13
Experimental: Murine anti-human IL-13 mAbs were prepared at various concentrations ranging from 0.1 to 100 ng/ml in PBS containing 0.1% BSA; 50 ul of each antibody dilution was added to the coated ELISA plate and incubated for 1 hour at room temperature. Wells were washed 3 times with PBS containing 0.05% Tween-20. […] Wells were washed 3 times with PBS containing 0.05% Tween-20. Streptavidin HRP (Pierce #21126, Rockland, Ill.) was diluted 1:20000 in PBS containing 0.1% BSA; […] was added and the plates incubated for 1 hour at room temperature. Plates were washed 3 times with PBS containing 0.05% Tween-20. Fifty microliters of TMB solution (Sigma # T0440, St. Louis, Mo.) was added to each well and incubated for 10 minutes at room temperature. The reaction was stopped by addition of 1N sulphuric acid. Plates were read spectrophotmetrically at a wavelength of 450 nm.

| binding result | Binder |
| --- | --- |
| no binding (tested: 0.1 to 100 ng/ml) | B1 |
| no binding (tested: 0.1 to 100 ng/ml) | B2 |
| no binding (tested: 0.1 to 100 ng/ml) | B3 |
| no binding (tested: 0.1 to 100 ng/ml) | B4 |
| no binding (tested: 0.1 to 100 ng/ml) | B10 |
| no binding (tested: 0.1 to 100 ng/ml) | B11 |
| no binding (tested: 0.1 to 100 ng/ml) | B5 |
| no binding (tested: 0.1 to 100 ng/ml) | B6 |
| no binding (tested: 0.1 to 100 ng/ml) | B7 |
| no binding (tested: 0.1 to 100 ng/ml) | B8 |
| no binding (tested: 0.1 to 100 ng/ml) | B9 |
